The values below come from PMC10194908 (2023).

T1: Recombinant NS1 from DENV-3-Sri Lanka D3/H/IMTSSA-SRI/2000/1266 (dengue virus serotype 3 (Sri Lanka …, UniProt Q6YMS4 774-1125))
T1 chain: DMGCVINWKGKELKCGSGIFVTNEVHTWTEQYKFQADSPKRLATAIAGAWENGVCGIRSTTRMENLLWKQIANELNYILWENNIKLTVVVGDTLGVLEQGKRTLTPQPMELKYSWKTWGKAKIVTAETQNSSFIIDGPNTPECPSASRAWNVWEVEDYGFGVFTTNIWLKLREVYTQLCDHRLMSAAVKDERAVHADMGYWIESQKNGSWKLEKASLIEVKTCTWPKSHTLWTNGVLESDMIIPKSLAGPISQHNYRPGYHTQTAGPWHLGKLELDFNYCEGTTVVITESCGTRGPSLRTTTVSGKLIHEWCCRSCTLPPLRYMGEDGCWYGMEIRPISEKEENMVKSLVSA

T2: Recombinant NS1 from DENV-4-Dominica/814669/1981 (dengue virus serotype 4 …, UniProt P09866 775-1126)
T2 chain: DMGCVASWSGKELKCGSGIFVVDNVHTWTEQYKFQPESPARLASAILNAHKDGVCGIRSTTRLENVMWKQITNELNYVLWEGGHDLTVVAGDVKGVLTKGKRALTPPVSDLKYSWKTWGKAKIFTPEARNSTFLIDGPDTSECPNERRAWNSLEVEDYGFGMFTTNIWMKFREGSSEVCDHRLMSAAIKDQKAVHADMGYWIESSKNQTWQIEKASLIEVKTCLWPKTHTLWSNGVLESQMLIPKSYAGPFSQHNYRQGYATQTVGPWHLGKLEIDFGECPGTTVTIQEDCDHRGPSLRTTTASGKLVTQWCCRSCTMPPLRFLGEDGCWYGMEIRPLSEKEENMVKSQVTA

B1: D8 (antibody, V domains shown)
VH: QVQLQESGPGLVKPSETLPLTCTVSGGSISNNGFYWGWIRQPPGKGLEWIGNIYYRGSTYYNPSLNSRVTISVDTSKNQFSLQLNSVTAADTAVYYCARLGIQLWFAIDYWGQGTLVTVSS
VL: SVLTQPPAVSVALGQTVRITCQGDSLRSSYASWYQQKPGQAPVLIFYAKNNRPSGIPDRFSGSSSGNTASLTITGAQAEDEADYYCYSRDSSGNLWVFGGGTKLTVL
B2: D6 (antibody, V domains shown)
VH: EVQLVQSGGGLVQPGRSLRLSCAASGFTFQDYAMHWVRQAPGKGLEWVSGIGRDSGTIDYADSVKGRFTISRDNAKNSLYLQMNSLRAEDTALYYCAKISNGYRPDNWGQGTLVTVSS
VL: VLTQPPSVSVSPGQTARITCSGDVLAKRYARWFQQKPGQAPVVVIYKDSERPSGIPERLSGSSSGTTVTLTISGAQVEDEADYYCYCAADNNVVFGGGTKLTVL
B3: Recombinant NS1 from DENV-1-Nauru/Western Pacific/1974 (natural protein)
chain: DSGCVINWKGRELKCGSGIFVTNEVHTWTEQYKFQADSPKRLSAAIGKAWEEGVCGIRSATRLENIMWKQISNELNHILLENDMKFTVVVGDVSGILAQGKKMIRPQPMEHKYSWKSWGKAKIIGADVQNTTFIIDGPNTPECPDNQRAWNIWEVEDYGFGIFTTNIWLKLRDSYTQVCDHRLMSAAIKDSKAVHADMGYWIESEKNETWKLARASFIEVKTCIWPKSHTLWSNGVLESEMIIPKIYGGPISQHNYRPGYFTQTAGPWHLGKLELDFDLCEGTTVVVDEHCGNRGPSLRTTTVTGKTIHEWCCRSCTLPPLRFKGEDGCWYGMEIRPVKEKEENLVKSMVSA
B4: A2 (antibody, V domains shown)
VH: QVQLQESGGGVVQPGRSLRLFCAASGFTFSAFSTYAIHWVRQAPGKGLEWVAVISYDANNKYYADSVKGRFTISRDNFKSTLFLQMNSLRAEDTAVYYCARDRSDSGYDSYYYYYGMDVWGQGTTVTVSS
VL: QSVVTQPPSVSAAPGQKVTISCSGSSSNIGRNYVSWYQHLPGTAPKLLIYDNNKRRSGIPDRFSGSKSDTTATLGITGLQTVDEADYYCGSWDNSLSAYVFGTGTKVTV

What all share (experiment): BLI
The target of assay [1] is T3, Recombinant NS1 from DENV-2-Thailand/16681/84 (dengue virus serotype 2 …, UniProt P29990 776-1127).
Assay [2] addresses T1, Recombinant NS1 from DENV-3-Sri Lanka ….
Assay [3] has as its target T2, Recombinant NS1 from ….
Assay [4] concerns the target B3.
The target in assay [5] is T3, Recombinant NS1 from …. The source holds these as a separate data set.
Assay [6] deals with T1, Recombinant NS1 from DENV-3-Sri Lanka ….
In assay [7] the target is T2, Recombinant NS1 from ….
For assay [8], the target named is B3.
The target of another assay is Den3.

T3 sequence (P29990 776-1127): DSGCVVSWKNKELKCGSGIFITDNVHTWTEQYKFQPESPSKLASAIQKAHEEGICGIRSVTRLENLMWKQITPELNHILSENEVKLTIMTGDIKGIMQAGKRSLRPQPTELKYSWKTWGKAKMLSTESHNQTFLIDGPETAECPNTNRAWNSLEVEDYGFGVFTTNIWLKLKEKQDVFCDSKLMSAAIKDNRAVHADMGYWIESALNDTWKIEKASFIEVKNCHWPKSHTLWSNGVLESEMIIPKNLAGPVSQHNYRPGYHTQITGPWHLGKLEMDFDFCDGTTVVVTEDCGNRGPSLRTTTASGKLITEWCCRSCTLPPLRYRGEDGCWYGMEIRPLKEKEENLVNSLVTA

As usually defined, the koff is the rate constant with which the complex falls apart. In general, Kd refers to the constant that tells how readily two partners part at equilibrium. On to B1, for which the koff in assay [1] is less than 1e-07 s⁻¹; in assay [2], 6.68e-05 s⁻¹; in [3], less than 1e-07 s⁻¹; in assay [4], 9.79e-05 s⁻¹. The Kd is less than 0.001 nM in [5], 0.569 nM in assay [6], less than 0.001 nM in [7] and 1.06 nM in [8].
For B2, the koff was less than 1e-07 s⁻¹ in assay [1], 5.9e-05 s⁻¹ in assay [3] and 0.000344 s⁻¹ in [4]. The Kd in assay [5] is less than 0.001 nM; in [7], 0.17 nM; in [8] it was 2.67 nM.
In the assay with Den3, B3 yielded a Kd of less than 0.001 nM and a koff of less than 1e-07 s⁻¹.
For B4, the koff in assay [1] is less than 1e-07 s⁻¹; in assay [2], less than 1e-07 s⁻¹; in assay [3] it was 0.0016 s⁻¹; in [4] it was 0.000221 s⁻¹. Further, the Kd was less than 0.001 nM in [5], less than 0.001 nM in [6], 4.41 nM in assay [7] and 1.61 nM in [8].
